Reference: publication PMC5681435, “Differential Regulation of G1 CDK Complexes by the Hsp90-Cdc37 Chaperone System” (Cell Reports, 2017)
Residue numbers refer to the chain shown, from its start. Names may count otherwise. “And” between values parts separate entries of the source, which are not always exact repeats. Equal values may be shown once. “Also recorded” adds a separate entry of the source.

B1: Kcyclin: viral D-type cyclin from Kaposi’s sarcoma-associated herpesvirus (protein)
chain: MATANNPPSGLLDPTLCEDRIFYNILEIEPRFLTSDSVFGTFQQSLTSHMRKLLGTWMFSVCQEYNLEPNVVALALNLLDRLLLIKQVSKEHFQKTGSACLLVASKLRSLTPISTSSLCYAAADSFSRQELIDQEKELLEKLAWRTEAVLATDVTSFLLLKLLGGSQHLDFWHHEVNTLITKALVDPKTGSLPASIISAAGCALLVPANVIPQDTHSGGVVPQLASILGCDVSVLQAAVEQILTSVSDFDLRILDSY
modifications: biotin (on the Avi tag); left off: Avi tag, end not stated, kept
notes: viral D-type cyclin from Kaposi’s sarcoma-associated herpesvirus
B2: p16D84N: p16INK4a mutant in which D84 is mutated to an asparagine (protein)
chain: MEPAAGSSMEPSADWLATAAARGRVEEVRALLEAGALPNAPNSYGRRPIQVMMMGSARVAELLLLHGAEPNCADPATLTRPVHNAAREGFLDTLVVLHRAGARLDVRDAWGRLPVDLAEELGHRDVARYLRAAAGGTRGSNHARIDAAEGPSDIPD
B3: p16M53E: p16INK4a M53E mutant (protein)
chain: B2 chain with M53E, N84D
B4: p16M53I: p16INK4a mutant in which M53 is mutated to an isoleucine (protein)
chain: B2 chain with M53I, N84D
B5: p16D108N: p16INK4a mutant, D108 mutated to an asparagine (protein)
chain: B2 chain with N84D, D108N
B6: Vcyclin: viral D-type cyclin from Herpesvirus saimiri (protein)
chain: MADSPNRLNRAKIDSTTMKDPRVLNNLKLRELLLPKFTSLWEIQTEVTVDNRTILLTWMHLLCESFELDKSVFPLSVSILDRYLCKKQGTKKTLQKIGAACVLIGSKIRTVKPMTVSKLTYLSCDCFTNLELINQEKDILEALKWDTEAVLATDFLIPLCNALKIPEDLWPQLYEAASTTICKALIQPNIALLSPGLICAGGLLTTIETDNTNCRPWTCYLEDLSSILNFSTNTVRTVKDQVSEAFSLYDLEIL

Legend:
[1] = molecular target: T1, CDK6-Cdc37 and CDK6-Cdc37-SfHsp90 complexes (Homo sapiens, UniProt Q00534); test: Pull-down with Avi-tagged bait from CDK6-Cdc37 and CDK6-Cdc37-SfHsp90 complexes assembled in insect cells; type: binding; conditions: 3-fold molar excess of complex, 4 °C
T1 construct: Full length human CDK4 and CDK6 with an N-terminal; made in house; host or cells: Sf9 insect cells (co-expression, baculovirus)
T1 sequence (Q00534 whole entry, one chain of several): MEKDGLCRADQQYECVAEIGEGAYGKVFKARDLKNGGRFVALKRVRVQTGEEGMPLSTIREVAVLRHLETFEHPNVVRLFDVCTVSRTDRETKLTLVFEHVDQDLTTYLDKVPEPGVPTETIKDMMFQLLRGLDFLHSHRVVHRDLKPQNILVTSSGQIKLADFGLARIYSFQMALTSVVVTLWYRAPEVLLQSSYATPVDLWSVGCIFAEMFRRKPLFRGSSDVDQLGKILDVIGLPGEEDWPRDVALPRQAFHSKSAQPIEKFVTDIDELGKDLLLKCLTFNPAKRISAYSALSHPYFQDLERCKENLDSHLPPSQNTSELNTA
Method: exchange chromatography (HiTrap Q, GE Healthcare). Protein concentrations were determined by NanoDrop2000 UV-Vis Spectrophotometer (Thermo Scientific) or using a Shimadzu UV1800 spectrophotometer. A representative SDS-polyacrylamide gel stained with silver is shown in Figure S4 to illustrate the purity of the GSTCDK4 and GSTCDK6 […]
Avi-tagged proteins (Cdc37, p16INK4a, p16INK4a mutants, Kcyclin and Vcyclin) were biotinylated to provide an affinity tag for the streptavidin-tagged XL665 dye. A substantial amount of biotinylated protein was purified from the recombinant E. coli cells as a result of endogenous BirA activity. Proteins were further modified by incubating 40 µM of the Avi-tagged protein with 10 µg BirA in biotinylation buffer (50 mM Bicine pH 8.3, 10 mM ATP, 10 mM MgOAc, 50 µM d-biotin) at 30°C for 60 minutes. […] The extent of protein biotinylation was monitored by pull downs using High Capacity NeutrAvidin® Agarose Resin (Thermo […]
To assemble the various complexes, 15 µg of Cdc37 was mixed with a molar equivalent of CDK6, and incubated for 1hour at 4 °C. […] The reactions were stopped by addition of 2 x LDS buffer and analysed by SDS-PAGE and subsequent western blotting using an anti-phosphorylated S780 antibody […]
Homogenous time-resolved fluorescence (HTRF) […]

[2] = system: CDK4-cyclin D1; design: method as in Koh et al., 1995; conditions: ref Koh et al., 1995; cited from earlier work
[3] = molecular target: T2, CDK6 (Homo sapiens, UniProt Q00534); test: SPR binding to immobilized GSTCDK6; conditions: for Kd: GSTCDK6 captured on chip, 4 °C
T2 construct: Full length human CDK4 and CDK6 with an N-terminal; made in house; host or cells: Sf9 insect cells (baculovirus, MultiBac)
T2 sequence (Q00534 whole entry): as the sequence (Q00534 whole entry, one chain of several) above

[4] = molecular target: T3, CDK4 (Homo sapiens, UniProt P11802); test: SPR binding to immobilized GSTCDK4; conditions: for Binding to CDK4 by SPR (in words): GSTCDK4 captured on chip
T3 construct: Full length human CDK4 and CDK6 with an N-terminal; made in house; host or cells: Sf9 insect cells (baculovirus, MultiBac)
T3 sequence (P11802 whole entry): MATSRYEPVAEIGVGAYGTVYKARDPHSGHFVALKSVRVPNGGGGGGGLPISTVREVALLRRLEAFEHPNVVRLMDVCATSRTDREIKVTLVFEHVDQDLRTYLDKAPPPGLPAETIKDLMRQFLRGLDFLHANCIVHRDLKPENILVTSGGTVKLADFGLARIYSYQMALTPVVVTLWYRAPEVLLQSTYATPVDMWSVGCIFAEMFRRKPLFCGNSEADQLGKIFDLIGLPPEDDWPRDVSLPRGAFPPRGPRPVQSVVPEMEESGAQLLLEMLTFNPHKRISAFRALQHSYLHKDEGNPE

[5] = system: G1 progression; design: method as in Koh et al., 1995; conditions: ref Koh et al., 1995; cited from earlier work
[6] = molecular target: T4, CDK4-Cdc37 complex (Homo sapiens, UniProt P11802); type: binding; conditions: HTRF competition, 8 nM GSTCDK4, 150 nM C-Avi Cdc37
T4 construct: Full length human CDK4 and CDK6 with an N-terminal; made in house; host or cells: GSTCDK4: Sf9 insect cells; Cdc37: E. coli
T4 sequence (P11802 whole entry, one chain of several): as the sequence (P11802 whole entry) above

[7] = Differential scanning fluorimetry (DSF) melting temperature; type: physicochemical; conditions: for Tm: 5 µM protein

Molecule | Kd [3] [nM] | Binding to CDK4 by SPR (in words) [4] | Displacement of Cdc37 from CDK4-Cdc37 complex (in words) [6] | Tm [7] | ΔTm (versus p16INK4a) [7] | further results
B1 |  |  |  |  |  | Displacement of CDK6 from CDK6-Cdc37 and CDK6-Cdc37-SfHsp90 (pull-down) [1]: able to displace CDK6; also recorded: could extract CDK6
B2 | 60 | binding could be detected but not quantified | unable to displace CDK4 or CDK6 from Cdc37 | 45.1 (±1.9) °C |  | Inhibition of CDK4-cyclin D1 kinase activity [2]: as effectively as wild-type p16INK4a; Inhibition of G1 progression [5]: modestly less effective; Tm ([7]; listed as D84N): 45.1 °C
B3 |  |  |  | 43.2 (±0.38) °C | −4.6 (±1.66) °C | 
B4 |  | binding could be detected but not quantified | ineffective | 42.7 (±0.47) °C | −4.9 (±2.33) °C | Higher rate of dissociation from CDK6 compared with wild-type p16INK4a [3]: approximately 10 fold; Reduction in the strength of the interaction with CDK4 versus wild-type p16INK4a ([4]; enhanced koff rate toward CDK4): > 10^6 fold; Tm ([7]; listed as M53I): 42.7 °C
B5 |  |  | only a modest reduction in activity | 36.4 °C and 36.4 (±3.1) °C | −10.5 (±1.29) °C | 
B6 | 0.016 ± 0.013 | the data quality precluded calculation of a Kd |  |  |  | 
